Assay [1] deals with T1, PLGF (UniProt P49763-2 21-149, limits assumed, biotinylated).
T1 construct: ELISA antigen; also called P1GF
T1 sequence (looked up): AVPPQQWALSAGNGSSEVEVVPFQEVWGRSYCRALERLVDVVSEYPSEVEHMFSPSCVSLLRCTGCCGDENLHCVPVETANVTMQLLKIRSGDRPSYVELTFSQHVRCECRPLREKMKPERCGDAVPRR
Kind of assay: direct bind ELISA, N-term VD.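 Also: antibody or DVD-Ig preparations bound to immobilized target antigen on ELISA plates, 1 h at room temperature, TMB detection read as absorbance at 450 nm.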 On the technique in general: An ELISA detects its analyte on a solid surface through an enzyme-linked reagent.

The target in a further assay is T2, EGFR (UniProt P00533 25-645, limits assumed, biotinylated).
T2 construct: ELISA antigen; construct not described
Briefly: direct bind ELISA, C-term VD.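 Also: ELISA with antibody or DVD-Ig preparations applied to target antigen-coated plates for 1 h at room temperature, TMB colour development, absorbance read at 450 nm.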

In another assay the target is T3, ErbB3 (UniProt P21860 20-643, limits assumed, biotinylated).
T3 construct: ELISA antigen
Briefly: direct bind ELISA, ref Ab.

A further assay addresses T4, DLL-4 (UniProt Q9NR61 27-524, limits assumed, biotinylated).
T4 construct: ELISA antigen
Briefly: direct bind ELISA, ref Ab.

The target of the next assay is T5, VEGF (UniProt P15692-4 27-191, limits assumed, biotinylated).
T5 construct: ELISA antigen
Kind of assay: direct bind ELISA, ref Ab.

A further assay has as its target T6, IGF1R (UniProt P08069 31-932, limits assumed, biotinylated).
T6 construct: ELISA antigen
Kind of assay: direct bind ELISA, ref Ab.

A further assay concerns the target RON (UniProt Q04912 25-571, biotinylated). Briefly: direct bind ELISA, ref Ab.
The target of another assay is T7, HGF (UniProt P14210 32-728, limits assumed, biotinylated).
T7 construct: ELISA antigen
Briefly: direct bind ELISA, ref Ab.

For assay [2], the target named is T1, PLGF. Kind of assay: direct bind ELISA, ref Ab.

Several values for one entry are separate records, joined by “and”; a condition that tells them apart may be missing. Equal values may be shown once.

13 molecules from patent US20110263827A1 (AbbVie / Abbott, published 2011) can be followed below.

B1: DVD784 (bispecific antibody)
VH: QVQLQQSGAELVKPGASVKISCKASGYTFTDYYINWVKLAPGQGLEWIGWIYPGSGNTKYNEKFKGKATLTIDTSSSTAYMQLSSLTSEDTAVYFCVRDSPFFDYWGQGTLLTVSSASTKGPSVFPLAPQVQLQESGPGLVKPSQTLSLTCTVSGYSISSDFAWNWIRQPPGKGLEWMGYISYSGNTRYQPSLKSRITISRDTSKNQFFLKLNSVTAADTATYYCVTAGRGFPYWGQGTLVTVSS
VL: DIVLTQSPDSLAVSLGERVTMNCKSSQSLLNSGMRKSFLAWYQQKPGQSPKLLIYWASTRESGVPDRFTGSGSGTDFTLTISSVQAEDVAVYYCKQSYHLFTFGSGTKLEIKRTVAAPSVFIFPPDIQMTQSPSSMSVSVGDRVTITCHSSQDINSNIGWLQQKPGKSFKGLIYHGTNLDDGVPSRFSGSGSGTDYTLTISSLQPEDFATYYCVQYAQFPWTFGGGTKLEIKR
notes: DVD-Ig; HC L, LC L; variable parts only
For the molecule B1, the EC50 in the assay with PLGF [1] came out at 0.26 nM; with EGFR, 41.4 nM.

B2: DVD844 (bispecific antibody)
VH: QVQLQQSGAELVKPGASVKISCKASGYTFTDYYINWVKLAPGQGLEWIGWIYPGSGNTKYNEKFKGKATLTIDTSSSTAYMQLSSLTSEDTAVYFCVRDSPFFDYWGQGTLLTVSSASTKGPQVQLQESGPGLVKPSQTLSLTCTVSGYSISSDFAWNWIRQPPGKGLEWMGYISYSGNTRYQPSLKSRITISRDTSKNQFFLKLNSVTAADTATYYCVTAGRGFPYWGQGTLVTVSS
VL: B1 VL
notes: DVD-Ig; HC S, LC L; variable parts only
As for B2, the results for the EC50 with PLGF [1] and in the assay with EGFR were 0.23 nM and 45.5 nM, respectively.

B3: DVD814 (bispecific antibody)
VH: B1 VH
VL: DIVLTQSPDSLAVSLGERVTMNCKSSQSLLNSGMRKSFLAWYQQKPGQSPKLLIYWASTRESGVPDRFTGSGSGTDFTLTISSVQAEDVAVYYCKQSYHLFTFGSGTKLEIKRTVAAPDIQMTQSPSSMSVSVGDRVTITCHSSQDINSNIGWLQQKPGKSFKGLIYHGTNLDDGVPSRFSGSGSGTDYTLTISSLQPEDFATYYCVQYAQFPWTFGGGTKLEIKR
notes: DVD-Ig; HC L, LC S; variable parts only
Take B3: the EC50 with PLGF [1] worked out at 0.23 nM; with EGFR, 50.4 nM.

B4: AB063 (antibody, V domains shown)
VH: EVQLVESGGGLVQPGGSLRLSCAASGFTFSIYSMNWVRQAPGKGLEWVSYISSSSSTIYYADSVKGRFTISRDNAKNSLYLQMNSLRDEDTAVYYCARDRGDFDAFDIWGQGTMVTVSS
VL: DIQMTQSPSSLSASVGDRVTITCQASQDITNYLNWYQQKPGKAPKLLIYDASNLETGVPSRFSGSGSGTDFTFTISSLQPEDIATYNCQQCENFPITFGQGTRLEIKR
notes: parent antibody
Consider B4, for which the EC50 with ErbB3 is 0.86 nM and 1.11 nM.

B5: DVD342 (bispecific antibody)
VH: B2 VH
VL: B3 VL
notes: DVD-Ig; HC S, LC S; variable parts only
Regarding B5, the 50% effective concentration (EC50) with PLGF [1] amounted to 0.2 nM; in the assay with EGFR, 120 nM.

B6: AB015 (antibody, V domains shown)
VH: EVQLVESGGGLVQPGGSLRLSCAASGFTFTDNWISWVRQAPGKGLEWVGYISPNSGFTYYADSVKGRFTISADTSKNTAYLQMNSLRAEDTAVYYCARDNFGGYFDYWGQGTLVTVSS
VL: DIQMTQSPSSLSASVGDRVTITCRASQDVSTAVAWYQQKPGKAPKLLIYSASFLYSGVPSRFSGSGSGTDFTLTISSLQPEDFATTYYCQQSYTGTVTFGQGTKVEIKR
notes: parent antibody; also called DLL-4
As to B6, in the assay with DLL-4, the concentration giving a half-maximal response (EC50) is 0.45 nM and 0.4 nM.

B7: AB071 (antibody, V domains shown)
VH: EVQLVESGGGLVQPGGSLRLSCAASGFTINASWIHWVRQAPGKGLEWVGAIYPYSGYTNYADSVKGRFTISADTSKNTAYLQMNSLRAEDTAVYYCARWGHSTSPWAMDYWGQGTLVTVSS
VL: DIQMTQSPSSLSASVGDRVTITCRASQVIRRSLAWYQQKPGKAPKLLIYAASNLASGVPSRFSGSGSGTDFTLTISSLQPEDFATYYCQQSNTSPLTFGQGTKVEIKR
notes: parent antibody
Turning to B7, the EC50 with VEGF was 1.68 nM and 1.57 nM.

B8: AB011 (antibody, V domains shown)
VH: EVQLLESGGGLVQPGGSLRLSCTASGFTFSSYAMNWVRQAPGKGLEWVSAISGSGGTTFYADSVKGRFTISRDNSRTTLYLQMNSLRAEDTAVYYCAKDLGWSDSYYYYYGMDVWGQGTTVTVSS
VL: DIQMTQFPSSLSASVGDRVTITCRASQGIRNDLGWYQQKPGKAPKRLIYAASRLHRGVPSRFSGSGSGTEFTLTISSLQPEDFATYYCLQHNSYPCSFGQGTKLEIKR
notes: parent antibody; also called IGF1R
B8: in the assay with IGF1R, the EC50 is 0.24 nM and 0.26 nM.

B9: AB062 (antibody, V domains shown)
VH: QVQLQQWGAGLLKPSETLSLTCAVYGGSFSGYYWSWIRQPPGKGLEWIGEINHSGSTNYNPSLKSRVTISVETSKNQFSLKLSSVTAADTAVYYCARDKWTWYFDLWGRGTLVTVSS
VL: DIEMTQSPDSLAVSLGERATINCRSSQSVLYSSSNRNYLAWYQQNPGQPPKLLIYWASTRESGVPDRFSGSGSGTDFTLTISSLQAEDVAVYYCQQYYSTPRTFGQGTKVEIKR
notes: parent antibody
For the molecule B9, in the assay with ErbB3, the EC50 was 1.19 nM and 1.36 nM and 1.34 nM.

B10: AB005 (antibody, V domains shown)
VH: EVQLVQSGGGLVKPGGSLRLSCAASGFTFSSYAMHWVRQAPGKGLEWVAVISYDGSNKYYADSVKGRFTISRDNSKNTLYLQMNSLRAEDTAVYYCARFSGWPNNYYYYGMDVWGQGTTVTVSS
VL: DVVMTQSPLSLPVTPGEPASISCRSSQSLLHSNGFNYVDWYLQKPGQSPHLLIYFGSYRASGVPDRFSGSGSGTDFTLKISRVEAEDVGVYYCMQALQTPPWTFGQGTKVEIRR
notes: parent antibody; also called RON
As to B10, the EC50 with RON was 0.19 nM and 0.24 nM.

B11: AB012 (antibody, V domains shown)
VH: QVQLVESGGGLVKPGGSLRLSCAASGFTFSDYYMSWIRQAPGKGLEWVSYISSSGSTIYYADSVKGRFTISRDNAKNSLYLQMNSLRAEDTAVYYCARDEYNSGWYVLFDYWGQGTLVTVSS
VL: DIQMTQSPSSVSASVGDRVTITCRASQGISSWLAWYQQKPGKAPNLLIYEASSLQSGVPSRFGGSGSGTDFTLTISSLQPEDFATYYCQQANGFPWTFGQGTKVEIKR
notes: parent antibody; also called HGF
On to B11, for which, in the assay with HGF, the half-maximal effective concentration (EC50) was 0.15 nM and 0.19 nM.

B12: AB067 (antibody, V domains shown)
VH: EVQLLESGGGLVQPGGSLRLSCAASGFTFSHYVMAWVRQAPGKGLEWVSSISSSGGWTLYADSVKGRFTISRDNSKNTLYLQMNSLRAEDTAVYYCTRGLKMATIFDYWGQGTLVTVSS
VL: QSALTQPASVSGSPGQSITISCTGTSSDVGSYNVVSWYQQHPGKAPKLIIYEVSQRPSGVSNRFSGSKSGNTASLTISGLQTEDEADYYCCSYAGSSIFVIFGGGTKVTVLG
notes: parent antibody
With B12, the EC50 with ErbB3 is 1.4 nM and 2.03 nM.

B13: AB047 (antibody, V domains shown)
VH: QVQLQQSGAELVKPGASVKISCKASGYTFTDYYINWVKLAPGQGLEWIGWIYPGSGNTKYNEKFKGKATLTIDTSSSTAYMQLSSLTSEDTAVYFCVRDSPFFDYWGQGTLLTVSS
VL: DIVLTQSPDSLAVSLGERVTMNCKSSQSLLNSGMRKSFLAWYQQKPGQSPKLLIYWASTRESGVPDRFTGSGSGTDFTLTISSVQAEDVAVYYCKQSYHLFTFGSGTKLEIKR
notes: parent antibody; also called PLGF; P1GF (ThromboGenix)
In the case of B13, the half-maximal effective concentration (EC50) with PLGF [2] is 0.21 nM and 0.25 nM.

As a reminder, the EC50 is the midpoint of the concentration-response curve. A higher EC50 goes with weaker potency.
